According to article doi:10.1101/2022.11.09.514853 (bioRxiv, 2022):

Molecular target: the molecule itself
Assay: cryo-EM structure

B1: human GluN2D, C-terminal domain truncated (M1-P879), Strep-tag II (receptor, UniProt O15399 28-879, looked up)
chain: FPEEAPGPGGAGGPGGGLGGARPLNVALVFSGPAYAAEAARLGPAVAAAVRSPGLDVRPVALVLNGSDPRSLVLQLCDLLSGLRVHGVVFEDDSRAPAVAPILDFLSAQTSLPIVAVHGGAALVLTPKEKGSTFLQLGSSTEQQLQVIFEVLEEYDWTSFVAVTTRAPGHRAFLSYIEVLTDGSLVGWEHRGALTLDPGAGEAVLSAQLRSVSAQIRLLFCAREEAEPVFRAAEEAGLTGSGYVWFMVGPQLAGGGGSGAPGEPPLLPGGAPLPAGLFAVRSAGWRDDLARRVAAGVAVVARGAQALLRDYGFLPELGHDCRAQNRTHRGESLHRYFMNITWDNRDYSFNEDGFLVNPSLVVISLTRDRTWEVVGSWEQQTLRLKYPLWSRYGRFLQPVDDTQHLTVATLEERPFVIVEPADPISGTCIRDSVPCRSQLNRTHSPPPDAPRPEKRCCKGFCIDILKRLAHTIGFSYDLYLVTNGKHGKKIDGVWNGMIGEVFYQRADMAIGSLTINEERSEIVDFSVPFVETGISVMVARSNGTVSPSAFLEPYSPAVWVMMFVMCLTVVAVTVFIFEYLSPVGYNRSLATGKRPGGSTFTIGKSIWLLWALVFNNSVPVENPRGTTSKIMVLVWAFFAVIFLASYTANLAAFMIQEEYVDTVSGLSDRKFQRPQEQYPPLKFGTVPNGSTEKNIRSNYPDMHSYMVRYNQPRVEEALTQLKAGKLDAFIYDAAVLNYMARKDEGCKLVTIGSGKVFATTGYGIALHKGSRWKRPIDLALLQFLGDDEIEMLERLWLSGICHNDKIEVMSSKLDIDNMAGVFYMLLVAMGLSLLVFAWEHLVYWRLRHCLGP
binding result: binds
